Data on 8 molecules can be found in US9944700B2, “Notch2 binding molecules for treating respiratory diseases” (NOVARTIS AG, priority 2013, dated 2018).

The data set has as its system bronchospheres (human bronchial epithelial cells). The data set is described as follows: Bronchosphere assay of secreted recombinant human proteins, qPCR of cell type markers and immunostaining. The data set is classed as cell-based. The following applies: for change in expression of at least one cell-type marker, initial screen: 55 proteins tested at 3.3, 10 and 30 ng/mL; for expression of both of the ciliated cell markers: markers FOXJ1, DNAI2; for expression of at least two of the goblet cell markers: markers MUC5AC, MUC5B, FOXA3; for change in expression of at least one of the cell-type markers, on validation: expanded concentration range. As to the method:
Human bronchial epithelial (HBE) cells and culture media were obtained from Lonza. Air-liquid interface cultures using passage 2 (P2) cells were performed as previously described (Danahay, H. et al., American journal of physiology. Lung cellular and molecular physiology 282, L226-236 (2002)). For three-dimensional culturing of HBE cells, P1 cells were trypsinized and resuspended (30,000 cells/ml) in HBE differentiation media containing 5% growth factor-reduced Matrigel (BD Biosciences). 20 μl of suspension was plated in each well of a 384-well plate (Greiner) pre-coated with 10 μl of a 25% solution of Matrigel (BD Biosciences) in HBE differentiation media. Wells were fed or treated at day 2 and day 8 of culture by adding 30 μl of differentiation media containing the appropriate treatment. Three-dimensional cultures were analyzed at the time points indicated.
Immunofluorescence of HBEC bronchospheres was performed as described previously for MCF10A cysts (Debnath, J. et al., Methods 30, 256-268 (2003) with the following modifications. After incubation with fluorescence-conjugated secondary antibodies, DNA was stained with a 1:1 mix of PBS and ProLong gold antifade containing DAPI. Confocal microscopy was performed at room temperature on a microscope (Zeiss LSM510 Meta) using an EC Plan-Neofluar 10×/0.30 dry objective (Zeiss), an EC Plan-Neofluor 20×/0.5 dry objective (Zeiss), a C-Apochromat 40×/1.2 W corr (Zeiss), or a C-Apochromat 63×/1.2 W Corr objective (Zeiss). Images were collected with Zen confocal software (Zeiss). Scale bars were added, and images were processed using Zen (Zeiss) and Photoshop (Adobe). Air-liquid interface (ALI) cultures were processed for immunofluorescence analysis after 14 days of culture at ALI by rinsing the apical surface of each filter with PBS, and then fixing in 4% paraformaldehyde for 4 hours. Filters were washed with IF buffer (130 mM NaCl, 7 mM Na2HPO4, 3.5 mM NaH2PO4, 7.7 mM NaN3, 0.1% bovine serum albumin, 0.2% Triton X-100, 0.05% Tween-20), blocked with IF wash containing 10% goat serum, and stained with primary antibody in IF wash containing 10% goat serum overnight at 4° C. Secondary antibodies were used at a 1:200 dilution in IF buffer containing 10% goat serum. To quantify the total staining area of ALI cultures, 10×13 images were collected with a plan Neofluar 10×0.3 NA Ph1 objective (EC; Carl Zeiss, Inc.) on a microscope (Axiovert 200; Carl Zeiss, Inc.) equipped with a motorized stage and a camera (Orca-ER-1394; Hamamatsu Photonics) controlled by Axiovision software (Carl Zeiss, Inc.) and used to generate a single composite image using the MOSAIX function in Zeiss Axiovision. Quantification of the total staining area was performed with ImageJ. Two to three regions of each ALI culture were punched out with a 4 mm biopsy punch (Miltex, Inc.) and mounted in ProLong gold antifade containing DAPI for imaging by confocal microscopy on a microscope (Axiovert 200; Carl Zeiss, Inc.) equipped with a motorized stage, a Yokogawa CSU-X1 spinning disc head, and an EMCCD camera (Evolve 512, Photometrics), with a Plan-Apochromat 100×/1.4 Oil DIC objective (Zeiss). Cells positive for MUC5AC, MUC5B, or cilia (acetylated α-Tubulin) staining were counted manually. For time-lapse video microscopy, HBECs were imaged at the indicated times during bronchosphere development at 37° C. with a plan Neofluar 10×0.3 NA Ph1 objective (EC; Carl Zeiss, Inc.). Images were taken every 5 min for the indicated time period. Annotations (time stamp and scale bar) were added and videos were assembled using Axiovision software.
RNA was isolated from 3D bronchosphere cultures with Trizol (Invitrogen), using manufacturer's specifications. To isolate RNA from mouse tissue, approximately 20 mg of tissue was placed in a 1.5 ml eppendorf tube with 1 ml of Buffer RLT Plus (Qiagen). A 5 mm stainless steel bead (Qiagen) was added to the tube, and the tissue was sheared using a Tissue Lyser II (Qiagen).
(In general: In qPCR the cycle at which signal appears reflects the starting amount.)

Where [1] appears, read: IL-13 treated bronchospheres, immunostaining, FIG. 2c.
Where [2] appears, read: IL-13 treatment between days 2 and 14 after seeding, qPCR, FIG. 2a.

For “IFN-γ: secreted, recombinant human protein profiled in the bronchosphere assay”, the “change in expression of at least one cell-type marker, initial screen” value (shortened to “change in expression … initial screen”) was “concentration-dependent change”; the “expression of both of the ciliated cell markers” value is “attenuated”; the “expression of at least two of the goblet cell markers” value is given as “enhanced”; the “change in expression of at least one of the cell-type markers, on validation” value (from here on “change in expression … on validation”) was “robust change”.
With “IL1-β: secreted, recombinant human protein profiled in the bronchosphere assay”, the “change in expression … initial screen” value is listed as “concentration-dependent change”; the “expression of both of the ciliated cell markers” value is recorded as “attenuated”; the “expression of at least two of the goblet cell markers” value was “enhanced”; the “change in expression … on validation” value was “robust change”.
Regarding “IL-13: secreted, recombinant human protein (inflammatory cytokine) profiled in the bronchosphere assay”, the “change in expression … initial screen” value was “concentration-dependent change”; the “expression of both of the ciliated cell markers” value is “attenuated”; the “expression of at least two of the goblet cell markers” value is reported as “enhanced”; the “change in expression … on validation” value is “robust change”. Moreover, under setting [1], the “acetylated α-tubulin positive structures” value is “lack” and the “secreted mucins in the central lumen” value is “accumulation”. Moreover, under setting [2], the “ciliated cell marker expression” value is reported as “declined” and the “expression of markers of goblet cells” value is reported as “clear enhancement”. Further, the “concentrations toxic and disrupting bronchosphere formation” value (data not shown) is given as greater than 3 ng/mL.

B1: IL-28A: secreted, recombinant human protein profiled in the bronchosphere assay (protein, UniProt Q8IZJ0 26-200, looked up)
Interferon lambda-2: VPVARLHGALPDARGCHIAQFKSLSPQELQAFKRAKDALEESLLLKDCRCHSRLFPRTWDLRQLQVRERPMALEAELALTLKVLEATADTDPALVDVLDQPLHTLHHILSQFRACIQPQPTAGPRTRGRLHHWLYRLQEAPKKESPGCLEASVTFNLFRLLTRDLNCVASGDLCV
Regarding B1, the “change in expression … initial screen” value is on record as “concentration-dependent change”; the “expression of both of the ciliated cell markers” value is “attenuated”; the “expression of at least two of the goblet cell markers” value was “enhanced”; the “change in expression … on validation” value is recorded as “robust change”.

B2: IL-28B: secreted, recombinant human protein profiled in the bronchosphere assay (protein, UniProt Q8IZI9 22-196, looked up)
Interferon lambda-3: VPVARLRGALPDARGCHIAQFKSLSPQELQAFKRAKDALEESLLLKDCKCRSRLFPRTWDLRQLQVRERPVALEAELALTLKVLEATADTDPALGDVLDQPLHTLHHILSQLRACIQPQPTAGPRTRGRLHHWLHRLQEAPKKESPGCLEASVTFNLFRLLTRDLNCVASGDLCV
For the molecule B2, the “change in expression … initial screen” value is “concentration-dependent change”; the “expression of both of the ciliated cell markers” value is recorded as “attenuated”; the “expression of at least two of the goblet cell markers” value was “enhanced”; the “change in expression … on validation” value is listed as “robust change”.

B3: IL-1a: secreted, recombinant human protein profiled in the bronchosphere assay (protein, UniProt P01583 113-271, looked up)
Interleukin-1 alpha: SAPFSFLSNVKYNFMRIIKYEFILNDALNQSIIRANDQYLTAAALHNLDEAVKFDMGAYKSSKDDAKITVILRISKTQLYVTAQDEDQPVLLKEMPEIPKTITGSETNLLFFWETHGTKNYFTSVAHPNLFIATKQDYWVCLAGGPPSITDFQILENQA
B3: the “change in expression … initial screen” value is “concentration-dependent change”; the “expression of both of the ciliated cell markers” value is recorded as “attenuated”; the “expression of at least two of the goblet cell markers” value is reported as “enhanced”; the “change in expression … on validation” value is “robust change”.

B4: IL-29: secreted, recombinant human protein profiled in the bronchosphere assay (protein, UniProt Q8IU54 20-200, looked up)
Interferon lambda-1: GPVPTSKPTTTGKGCHIGRFKSLSPQELASFKKARDALEESLKLKNWSCSSPVFPGNWDLRLLQVRERPVALEAELALTLKVLEAAAGPALEDVLDQPLHTLHHILSQLQACIQPQPTAGPRPRGRLHHWLHRLQEAPKKESAGCLEASVTFNLFRLLTRDLKYVADGNLCLRTSTHPEST
For B4, the “change in expression … initial screen” value was “concentration-dependent change”; the “expression of both of the ciliated cell markers” value is listed as “attenuated”; the “expression of at least two of the goblet cell markers” value was “enhanced”; the “change in expression … on validation” value is reported as “robust change”.

B5: FGF-7: secreted, recombinant human protein profiled in the bronchosphere assay (protein, UniProt P21781 32-194, looked up)
Fibroblast growth factor 7: CNDMTPEQMATNVNCSSPERHTRSYDYMEGGDIRVRRLFCRTQWYLRIDKRGKVKGTQEMKNNYNIMEIRTVAVGIVAIKGVESEFYLAMNKEGKLYAKKECNEDCNFKELILENHYNTYASAKWTHNGGEMFVALNQKGIPVRGKKTKKEQKTAHFLPMAIT
In the case of B5, the “change in expression … initial screen” value is “concentration-dependent change”. Further, the “expression of MUC5B” value (bronchosphere assay) is recorded as “enhanced”. In addition, the “effect on any of the other markers” value (markers other than MUC5B) is “without affecting”.
